From article PMC9531584 (Nature structural & molecular biology, 2022)

B1: Torpedo californica muscle-type nicotinic acetylcholine receptor β subunit (natural protein, UniProt P02712 25-493, looked up)
chain: SVMEDTLLSVLFETYNPKVRPAQTVGDKVTVRVGLTLTNLLILNEKIEEMTTNVFLNLAWTDYRLQWDPAAYEGIKDLRIPSSDVWQPDIVLMNNNDGSFEITLHVNVLVQHTGAVSWQPSAIYRSSCTIKVMYFPFDWQNCTMVFKSYTYDTSEVTLQHALDAKGEREVKEIVINKDAFTENGQWSIEHKPSRKNWRSDDPSYEDVTFYLIIQRKPLFYIVYTIIPCILISILAILVFYLPPDAGEKMSLSISALLAVTVFLLLLADKVPETSLSVPIIIRYLMFIMILVAFSVILSVVVLNLHHRSPNTHTMPNWIRQIFIETLPPFLWIQRPVTTPSPDSKPTIISRANDEYFIRKPAGDFVCPVDNARVAVQPERLFSEMKWHLNGLTQPVTLPQDLKEAVEAIKYIAEQLESASEFDDLKKDWQYVAMVADRLFLYVFFVICSIGTFSIFLDASHNVPPDNPFA
B2: Torpedo californica muscle-type nicotinic acetylcholine receptor α subunit (natural protein, UniProt P02710 25-461, looked up)
chain: SEHETRLVANLLENYNKVIRPVEHHTHFVDITVGLQLIQLISVDEVNQIVETNVRLRQQWIDVRLRWNPADYGGIKKIRLPSDDVWLPDLVLYNNADGDFAIVHMTKLLLDYTGKIMWTPPAIFKSYCEIIVTHFPFDQQNCTMKLGIWTYDGTKVSISPESDRPDLSTFMESGEWVMKDYRGWKHWVYYTCCPDTPYLDITYHFIMQRIPLYFVVNVIIPCLLFSFLTGLVFYLPTDSGEKMTLSISVLLSLTVFLLVIVELIPSTSSAVPLIGKYMLFTMIFVISSIIITVVVINTHHRSPSTHTMPQWVRKIFIDTIPNVMFFSTMKRASKEKQENKIFADDIDISDISGKQVTGEVIFQTPLIKNPDVKSAIEGVKYIAEHMKSDEESSNAAEEWKYVAMVIDHILLCVFMLICIIGTVSVFAGRLIELSQEG

Tests used:
[1] = biological target: T1, Torpedo californica muscle-type nicotinic acetylcholine receptor δ subunit (Torpedo californica (Tetronarce …, UniProt P02718 22-522)); test: cryo-EM structure
T1 sequence (looked up): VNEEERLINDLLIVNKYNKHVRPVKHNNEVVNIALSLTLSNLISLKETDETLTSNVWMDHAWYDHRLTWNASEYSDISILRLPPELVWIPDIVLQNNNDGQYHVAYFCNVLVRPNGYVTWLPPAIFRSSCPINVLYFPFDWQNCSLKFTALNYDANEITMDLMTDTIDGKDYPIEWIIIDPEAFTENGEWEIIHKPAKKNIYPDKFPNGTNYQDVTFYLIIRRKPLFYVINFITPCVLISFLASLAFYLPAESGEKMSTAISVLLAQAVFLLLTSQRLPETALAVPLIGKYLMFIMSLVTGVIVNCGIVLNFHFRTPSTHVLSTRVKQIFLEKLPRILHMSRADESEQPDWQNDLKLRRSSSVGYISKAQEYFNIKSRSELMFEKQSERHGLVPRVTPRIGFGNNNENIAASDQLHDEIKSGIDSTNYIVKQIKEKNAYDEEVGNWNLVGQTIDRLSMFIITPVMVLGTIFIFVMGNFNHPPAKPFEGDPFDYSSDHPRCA

[2] = biological target: B1; test: cryo-EM structure

Binder	binding result [1]	binding result [2]
B1	binds	–
B2	–	binds
